The substances below were run against Shiftless (SHFL) WT (human) (UniProt Q9NUL5) (assay: EMSA).
Chain of Shiftless (SHFL) WT (human) (Q9NUL5 whole entry): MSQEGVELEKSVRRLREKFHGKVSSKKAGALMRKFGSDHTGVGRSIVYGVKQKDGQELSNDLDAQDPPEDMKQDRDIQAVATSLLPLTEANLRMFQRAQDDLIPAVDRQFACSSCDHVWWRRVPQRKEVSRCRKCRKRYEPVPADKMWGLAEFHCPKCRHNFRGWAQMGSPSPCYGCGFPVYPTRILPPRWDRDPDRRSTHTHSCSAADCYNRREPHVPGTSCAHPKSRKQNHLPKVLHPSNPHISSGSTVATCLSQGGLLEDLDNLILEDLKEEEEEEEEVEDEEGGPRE

| Substance | Kd |
| --- | --- |
| GACCCUAGAUGACUAGGGAGGUCAGGGUCAGGAGCCCCCCCCUGAACCCAGGAUAACCCUCAAAGUCGGGGGGCAACCCGUCAC [MuLV RT signal] | 0.5 µM |
| IBVmax (wild-type pseudoknot) | 0.5 µM |
| GACCCUAGAUGACUAGGGAGGUCAGGGACACGAGCCCCCCCCUGAACCCAGGAUAACCCUCAAAGUCGGGGGGCAACCCGUCAC [MuLV S1] | 0.5 µM |
| control RNA (SARS-CoV-2 antigenome) | 0.5 µM |
